The RNAGym collection of RNA variant scans (doi:10.7554/elife.80360)

B1: CPEB3 Ribozyme (parent)
chain: GGGGGCCACAGCAGAAGCGUUCACGUCGCGGCCCCUGUCAGAUUCUGGUGAAUCUGCGAAUUCUGCUGU

Variants of: B1
Assay: self-cleavage, relative activity (ratio to wild type); higher = more cleavage; co-transcriptional

First: GAGGGCCACAGCAGAAGCGUUCACGUCGGGGCCCCUGUCAGAUUCUGGUGAAUCUGCGAAUUCUGCUGU
Second: GAGGGCCACAGCAGAAGCGUUCACGUCGUGGCCCCUGUCAGAUUCUGGUGAAUCUGCGAAUUCUGCUGU
The self-cleavage of the first is lower: 0.0351 for the first, 0.0474 for the second.

Compared with GAGGGCCACAGCAGAAGCGUUCACGUCGAGGCCCCUGUCAGAUUCUGGUGAAUCUGCGAAUUCUGCUGU, GAGGGCCACAGCAGAAGCGUUCACGUCGCGGCCCCUGUCAGAUUGUGGUGAAUCUGCGAAUUCUGCUGU is higher in self-cleavage: 0.0397 for the first, 0.217 for the second.

Going from GAGGGCCACAGCAGAAGCGUUCAGGUCGCGGCCCCUGUCAGAUUCUGGUGAAUCUGCGAAUUCUGCUGU to GAGGGCCACAGGAGAAGCGUUCACGUCGCGGCCCCUGUCAGAUUCUGGUGAAUCUGCGAAUUCUGCUGU, the self-cleavage rises from 0.0162 to 0.123.

Compared with GAGGGCCACAGCAGAAGCGUUCACGUCGCGGCACCUGUCAGAUUCUGGUGAAUCUGCGAAUUCUGCUGU, GAGGGCCACAGCAGAAGCGUUCACGUCGCGGCUCCUGUCAGAUUCUGGUGAAUCUGCGAAUUCUGCUGU is higher in self-cleavage: 0.0406 for the first, 0.0941 for the second.

First: GAGGGCCACAUCAGAAGCGUUCACGUCGCGGCCCCUGUCAGAUUCUGGUGAAUCUGCGAAUUCUGCUGU
Second: GAGGGCCACACCAGAAGCGUUCACGUCGCGGCCCCUGUCAGAUUCUGGUGAAUCUGCGAAUUCUGCUGU
The self-cleavage of the first is higher: 0.117 for the first, 0.0914 for the second.

Compared with GAGGGCCACAACAGAAGCGUUCACGUCGCGGCCCCUGUCAGAUUCUGGUGAAUCUGCGAAUUCUGCUGU, GAGGGCCACAGCAGAAGCGUUCACGUCGCGGCCCCUGUCAGAUUCUGGUGAUUCUGCGAAUUCUGCUGU is higher in self-cleavage: 0.101 for the first, 0.12 for the second.

Compared with GAGGGCCACAGCAGAAGCGUUCACGUCGCGGCCCCUGUCAGAUUCUGGUGAGUCUGCGAAUUCUGCUGU, GAGGGCCACAGCAGAAGCGUUCACGUCGCAGCCCCUGUCAGAUUCUGGUGAAUCUGCGAAUUCUGCUGU is lower in self-cleavage: 0.242 for the first, 0.0606 for the second.

Compared with GAGGGCCACAGCAGAAGCGUUCACGUCGCCGCCCCUGUCAGAUUCUGGUGAAUCUGCGAAUUCUGCUGU, GAGGGCCACAGCAGAAGCGUUCACGUCGCUGCCCCUGUCAGAUUCUGGUGAAUCUGCGAAUUCUGCUGU is lower in self-cleavage: 0.0605 for the first, 0.058 for the second.

Going from GAGGGCCACAGCAGAAGCGUUCACGUCUCGGCCCCUGUCAGAUUCUGGUGAAUCUGCGAAUUCUGCUGU to GAGGGCCACAGCAGAAGCGUUCACGUCACGGCCCCUGUCAGAUUCUGGUGAAUCUGCGAAUUCUGCUGU, the self-cleavage falls from 0.0733 to 0.0492.

Going from GAGGGCCACAGCAGAAGCGUUCACGUCGCGGCCCCUGUCAGAUUCUGGUGAAUCUGGGAAUUCUGCUGU to GAGGGCCACAGCAGAAGCGUUCACGUCGCGGCCCCUGUCAGAUUCUGGUGAAUCUGAGAAUUCUGCUGU, the self-cleavage rises from 0.047 to 0.0762.

First: GAGGGCCACAGCAGAAGCGUUCACGUCGCGGCCCCUGUCAGAUUCUGGUGAAUCUGUGAAUUCUGCUGU
Second: GAGGGCCACAGCAGAAGCGUUCACGUCGCGGCCCCUGUCUGAUUCUGGUGAAUCUGCGAAUUCUGCUGU
The self-cleavage of the first is lower: 0.0401 for the first, 0.0585 for the second.

Going from GAGGGCCACAGCAGAAGCGUUCACCUCGCGGCCCCUGUCAGAUUCUGGUGAAUCUGCGAAUUCUGCUGU to GAGGGCCACAGCAGAAGCGUUCACUUCGCGGCCCCUGUCAGAUUCUGGUGAAUCUGCGAAUUCUGCUGU, the self-cleavage rises from 0.0386 to 0.0625.

Going from GAGGGCCACAGCAGAAGCGUUCGCGUCGCGGCCCCUGUCAGAUUCUGGUGAAUCUGCGAAUUCUGCUGU to GAGGGCCACAGCAGAAGCGUUCACGUCGCGGCCCCUGUCAGAUUCUGGUGUAUCUGCGAAUUCUGCUGU, the self-cleavage rises from 0.15 to 0.233.

Going from GAGGGCCACAGCAGAAGCGUUCACGUCGCGGCCCCUGUCAGAUUCUGGUGGAUCUGCGAAUUCUGCUGU to GAGGGCCACAGCAGAAGCGUUCACGUCGCGGCCCCUGUCAGAUUCUGGUGCAUCUGCGAAUUCUGCUGU, the self-cleavage falls from 0.158 to 0.0717.

Going from GAGGGCCACAGCAGAAUCGUUCACGUCGCGGCCCCUGUCAGAUUCUGGUGAAUCUGCGAAUUCUGCUGU to GAGGGCCACAGCAGAAACGUUCACGUCGCGGCCCCUGUCAGAUUCUGGUGAAUCUGCGAAUUCUGCUGU, the self-cleavage falls from 0.0353 to 0.0268.

First: GAGGGCCACAGCAGAAGCGUUCACGUCGCGGCCCCUGUCAGAUUCUGGUGAAUCUGCGAAUUGUGCUGU
Second: GAGGGCCACAGCAGAAGCGUUCACGUCGCGGCCCCUGUCAGAUUCUGGUGAAUCUGCGAAUUUUGCUGU
The self-cleavage of the first is lower: 0.0931 for the first, 0.173 for the second.

First: GACGGCCACAGCAGAAGCGUUCACGUCGCGGCCCCUGUCAGAUUCUGGUGAAUCUGCGAAUUCUGCUGU
Second: GAUGGCCACAGCAGAAGCGUUCACGUCGCGGCCCCUGUCAGAUUCUGGUGAAUCUGCGAAUUCUGCUGU
The self-cleavage of the first is higher: 0.176 for the first, 0.0425 for the second.

Going from GAAGGCCACAGCAGAAGCGUUCACGUCGCGGCCCCUGUCAGAUUCUGGUGAAUCUGCGAAUUCUGCUGU to GAGGGCCACAGCAGAAGUGUUCACGUCGCGGCCCCUGUCAGAUUCUGGUGAAUCUGCGAAUUCUGCUGU, the self-cleavage falls from 0.0827 to 0.0628.

Compared with GAGGGCCACAGCAGAAGCGUUCACGUCGCGGCCCGUGUCAGAUUCUGGUGAAUCUGCGAAUUCUGCUGU, GAGGGCCACAGCAGAAGCGUUCACGUCGCGGCCCUUGUCAGAUUCUGGUGAAUCUGCGAAUUCUGCUGU is higher in self-cleavage: 0.0841 for the first, 0.542 for the second.

Going from GAGGGCCACAGCAGAAGCGUUCACGUCGCGGCCCAUGUCAGAUUCUGGUGAAUCUGCGAAUUCUGCUGU to GAGGGCCAGAGCAGAAGCGUUCACGUCGCGGCCCCUGUCAGAUUCUGGUGAAUCUGCGAAUUCUGCUGU, the self-cleavage rises from 0.0641 to 0.411.

Compared with GAGGGCCAUAGCAGAAGCGUUCACGUCGCGGCCCCUGUCAGAUUCUGGUGAAUCUGCGAAUUCUGCUGU, GAGGGCCAAAGCAGAAGCGUUCACGUCGCGGCCCCUGUCAGAUUCUGGUGAAUCUGCGAAUUCUGCUGU is lower in self-cleavage: 0.493 for the first, 0.435 for the second.

Going from GAGGGCCACAGCAGAAGCGUUCACGUCGCGGCCCCUGUCAGAUUCUGGUGAAUUUGCGAAUUCUGCUGU to GAGGGCCACAGCAGAAGCGUUCACGUCGCGGCCCCUGUCAGAUUCUGGUGAAUAUGCGAAUUCUGCUGU, the self-cleavage falls from 0.152 to 0.112.

Going from GAGGGCCACAGCAAAAGCGUUCACGUCGCGGCCCCUGUCAGAUUCUGGUGAAUCUGCGAAUUCUGCUGU to GAGGGCCACAGCAUAAGCGUUCACGUCGCGGCCCCUGUCAGAUUCUGGUGAAUCUGCGAAUUCUGCUGU, the self-cleavage rises from 0.0649 to 0.0746.

Compared with GAGGGCCACAGCACAAGCGUUCACGUCGCGGCCCCUGUCAGAUUCUGGUGAAUCUGCGAAUUCUGCUGU, GAGGGCUACAGCAGAAGCGUUCACGUCGCGGCCCCUGUCAGAUUCUGGUGAAUCUGCGAAUUCUGCUGU is lower in self-cleavage: 0.075 for the first, 0.0501 for the second.

Going from GAGGGCAACAGCAGAAGCGUUCACGUCGCGGCCCCUGUCAGAUUCUGGUGAAUCUGCGAAUUCUGCUGU to GAGGGCCACAGCAGAAGCGUUCACGUGGCGGCCCCUGUCAGAUUCUGGUGAAUCUGCGAAUUCUGCUGU, the self-cleavage rises from 0.0557 to 0.0739.

Going from GAGGGCCACAGCAGAAGCGUUCACGUAGCGGCCCCUGUCAGAUUCUGGUGAAUCUGCGAAUUCUGCUGU to GAGGGCCACAGCAGAAGCGUUCACGUUGCGGCCCCUGUCAGAUUCUGGUGAAUCUGCGAAUUCUGCUGU, the self-cleavage falls from 0.0442 to 0.0441.

First: GAGGGCCACAGCAGAAGCAUUCACGUCGCGGCCCCUGUCAGAUUCUGGUGAAUCUGCGAAUUCUGCUGU
Second: GAGGGCCACAGCAGAAGCUUUCACGUCGCGGCCCCUGUCAGAUUCUGGUGAAUCUGCGAAUUCUGCUGU
The self-cleavage of the first is lower: 0.0283 for the first, 0.0445 for the second.

First: GAGGGCCACAGCAGAAGCGUUGACGUCGCGGCCCCUGUCAGAUUCUGGUGAAUCUGCGAAUUCUGCUGU
Second: GAGGGCCACAGCAGAAGCGUUUACGUCGCGGCCCCUGUCAGAUUCUGGUGAAUCUGCGAAUUCUGCUGU
The self-cleavage of the first is lower: 0.0504 for the first, 0.051 for the second.

First: GAGGGCCACAGCAGAAGCGUUCACGUCGCGACCCCUGUCAGAUUCUGGUGAAUCUGCGAAUUCUGCUGU
Second: GAGGGCCACAGCAGAAGCGUUCACGUCGCGGCCCCUGUCAGAUUCUGGUGAAUCUGCGCAUUCUGCUGU
The self-cleavage of the first is higher: 0.0613 for the first, 0.0548 for the second.

First: GAGGGCCACAGCAGAAGCGUUCACGUCGCGGCCCCUGUCAGAUUCUGGUGAAUCUGCGGAUUCUGCUGU
Second: GAGGGCCACAGCAGAAGCGUUCACGUCGCGGCCCCUGUCAGAUUCUGGUGAAUCUGCGUAUUCUGCUGU
The self-cleavage of the first is higher: 0.129 for the first, 0.0616 for the second.

Compared with GAGGACCACAGCAGAAGCGUUCACGUCGCGGCCCCUGUCAGAUUCUGGUGAAUCUGCGAAUUCUGCUGU, GAGGCCCACAGCAGAAGCGUUCACGUCGCGGCCCCUGUCAGAUUCUGGUGAAUCUGCGAAUUCUGCUGU is higher in self-cleavage: 0.0392 for the first, 0.122 for the second.

Going from GAGGGCCACAGCAGAAGCGUUCACGUCGCGGCCCCUCUCAGAUUCUGGUGAAUCUGCGAAUUCUGCUGU to GAGGGCCACAGCAGAAGCGUUCACGUCGCGGCCCCUAUCAGAUUCUGGUGAAUCUGCGAAUUCUGCUGU, the self-cleavage rises from 0.0177 to 0.0498.

Going from GAGGGCCACAGCAGAAGCGUUCACGUCGCGGCCCCUGUAAGAUUCUGGUGAAUCUGCGAAUUCUGCUGU to GAGGGCCACAGCAGAAGCGUUCACGUCGCGGCCCCUGUUAGAUUCUGGUGAAUCUGCGAAUUCUGCUGU, the self-cleavage rises from 0.032 to 0.072.

Compared with GAGGGCCACAGCAGAAGCGUUCACGUCGCGGCCCCUGUCAGAUUCUGGUGAAUCUGCGACUUCUGCUGU, GAGGGCCACAGCAGAAGCGUUCACGUCGCGGCCCCUGUCAGAUUCUGGUGAAUCUGCGAAUUCUGUUGU is higher in self-cleavage: 0.0397 for the first, 0.236 for the second.

Compared with GAGGGCCACAGCAGAAGCGUUCACGUCGCGGCCCCUGUCAGAUUCUGGUGAAUCUGCGAAUUCUGAUGU, GAGGGCCACAGCAGAAGCGUUCACGUCGCGGCCCCUGUCAGAUUCUGGUGAAUCUGCGAAUUCUGGUGU is higher in self-cleavage: 0.0939 for the first, 0.101 for the second.

Going from GAGGGCCACAGCAGAAGCGUUCACGUCGCGGCCCCUGUCAGUUUCUGGUGAAUCUGCGAAUUCUGCUGU to GAGGGCCACAGCAGAAGCGUUCACGUCGCGGCCCCUGUCAGCUUCUGGUGAAUCUGCGAAUUCUGCUGU, the self-cleavage falls from 0.0966 to 0.0844.

Going from GAGGGCCACAGCAGAAGCGUUCACGUCGCGGUCCCUGUCAGAUUCUGGUGAAUCUGCGAAUUCUGCUGU to GAGGGCCACAGCAGAAGCGUUCACGUCGCGGCCUCUGUCAGAUUCUGGUGAAUCUGCGAAUUCUGCUGU, the self-cleavage rises from 0.0612 to 0.106.

Going from GAGGGCCACAGCAGAAGCGUUCACGUCGCGGCCACUGUCAGAUUCUGGUGAAUCUGCGAAUUCUGCUGU to GAGGGGCACAGCAGAAGCGUUCACGUCGCGGCCCCUGUCAGAUUCUGGUGAAUCUGCGAAUUCUGCUGU, the self-cleavage rises from 0.0453 to 0.0574.

Going from GAGGGUCACAGCAGAAGCGUUCACGUCGCGGCCCCUGUCAGAUUCUGGUGAAUCUGCGAAUUCUGCUGU to GAGGGACACAGCAGAAGCGUUCACGUCGCGGCCCCUGUCAGAUUCUGGUGAAUCUGCGAAUUCUGCUGU, the self-cleavage falls from 0.0868 to 0.044.
